Source: patent US20220088115A1, “PHARMACEUTICAL COMPOSITION, COMPRISING INHIBITORY PEPTIDE AGAINST FAS SIGNALING, FOR PREVENTION OR TREATMENT OF OBESITY, FATTY LIVER, OR STEATOHEPATITIS” (SIGNET BIOTECH INC., priority 2018, published 2022)
Where a SMILES comes first, the peptide text is derived from it. Where no end group is shown, it is not given here.

How the values were obtained:
[1] = Stability of peptides in sera; type: in vitro ADME; conditions: compared among cyclic FBP-8, linear FBP-8 and FBP-7
obese person = conditions: in vivo; cited from earlier work
Fas = target: T1, Fas (Homo sapiens, UniProt P25445); test: Binding of Alexa647-labeled peptides to Fas-expressing Jurkat cell line; conditions: Jurkat cell line always expressing Fas; Alexa647-labeled peptide
T1 construct: A Jurkat cell line, in which Fas is always expressed; host or cells: Jurkat
T1 sequence (P25445 26-335): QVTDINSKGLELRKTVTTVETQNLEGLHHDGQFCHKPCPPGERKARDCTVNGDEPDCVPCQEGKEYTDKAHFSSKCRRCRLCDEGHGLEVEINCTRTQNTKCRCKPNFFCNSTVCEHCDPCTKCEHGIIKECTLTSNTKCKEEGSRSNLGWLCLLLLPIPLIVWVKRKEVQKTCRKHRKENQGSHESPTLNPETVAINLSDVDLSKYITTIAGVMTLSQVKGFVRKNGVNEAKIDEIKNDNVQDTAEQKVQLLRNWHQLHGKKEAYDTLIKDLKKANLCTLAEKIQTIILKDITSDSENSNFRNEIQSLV
Procedure: A Jurkat cell line which is a human blood cancer cell line and a 3T3L1 cell line which is a murine adipocyte were purchased from ATCC (USA), and the Jurkat cell line was cultured in an RPMI culture medium containing 10% fetal bovine serum (FBS), 1% penicillin, 1% streptomycin, and 25 mM glucose.
A Jurkat cell line, in which Fas is always expressed, was treated with an FITC-labeled Fas antibody and treated with Alexa647-labeled FBP-8, FBP-A, FBP-7 or control peptide (YCNSTVCY; CtrFBP).

3T3L1 cell line = test: Apoptosis level in 3T3L1 cell line treated with FasL and peptide (annexin V flow cytometry); type: cell-based, murine; conditions: differentiated 3T3L1 treated with Fas ligand and peptide
Procedure: The 3T3L1 cell line was cultured in a DMEM culture medium containing 10% FBS, 1% penicillin, 1% streptomycin, and 25 mM glucose. The 3T3L1 cell line was aliquoted into the above DMEM culture solution at a concentration of 2×10^5 cells/ml to induce adipocyte maturation for 3 days, and then replaced with a culture solution containing insulin to induce adipocyte maturation again for 3 days. Thereafter, the 3T3L1 cell line was further cultured in the above DMEM culture solution for 2 days to achieve complete maturation of adipocytes.
The 3T3L1 cell line was treated with a Fas ligand (FasL) at a concentration of 500 ng/ml to induce apoptosis, and FBP signal blocking peptides (FBP-8. FBP-A and FBP-7) and CtrFBP bound to Alexa647 were treated, respectively. After 4 hours of peptide treatment, cells were washed with DPBS and treated with FITC-bound annexin V (BD Pharmingen) to analyze the apoptosis inhibitory effect by a flow cytometer.

obesity model mice = test: TUNEL staining of dead cells, obesity model mice, intravenous FBP-8; type: in vivo, C57BL/6 mice; conditions: intravenous twice a week for 5 weeks
Procedure: All animal experiments performed for the present invention were approved by the Institutional Animal Care and Use Committee of Hanyang University. […] Thereafter, depending on the experimental group, 60 μg/one time of FBP8 were administered by intravenous injection twice a week for a total of 5 weeks (FIG. 13), or FBP7 was administered by subcutaneous injection twice a day.
Furthermore, a terminal deoxynucleotidyl transferase dUTP nick end labeling (TUNEL) analysis for each tissue was performed with an in situ cell death detection kit (Millipore, USA). Thereafter, the fluorescence signals were analyzed under a TCS-SP5 confocal microscope by staining the nuclei with Hoechst 33342, and the fluorescence signals of each cell were analyzed with the Image J program.
Obesity model mice were produced by feeding normal mice a high fat diet for 8 weeks, and FBP-8 was administered by intravenous injection twice a week for a total of 5 weeks (FIG. 13). After five weeks, the obesity model mice were sacrificed to isolate white adipose tissues and liver tissues and analyze the proportion of dead cells by TUNEL staining.

[2] = target: T2, Fas on Jurkat cell line (human blood cancer cell line in which Fas is always expressed) (human, UniProt P25445 26-335); test: cell-based or functional assay
T2 sequence (looked up): T1 sequence (P25445 26-335)

With `N[C@@H](Cc1ccc(O)cc1)C(=O)N[C@@H](CS)C(=O)N[C@@H](CC(=O)O)C(=O)N[C@@H](CCC(=O)O)C(=O)N[C@@H](Cc1c[nH]cn1)C(=O)N[C@@H](Cc1ccccc1)C(=O)N[C@@H](Cc1ccc(O)cc1)C(=O)O` [FBP-7, YCDEHFY] (H-YCDEHFY-OH; N-terminus and C-terminus assumed) the serum stability [1] was “the best”.

For `CCCCCCCCCCCCCCCC(=O)N[C@@H](CCC(=O)NCCCC[C@H](NC(=O)[C@H](C)NC(=O)[C@H](C)NC(=O)[C@H](CCC(N)=O)NC(=O)CNC(=O)[C@H](CCC(=O)O)NC(=O)[C@H](CC(C)C)NC(=O)[C@H](Cc1ccc(O)cc1)NC(=O)[C@H](CO)NC(=O)[C@H](CO)NC(=O)[C@@H](NC(=O)[C@H](CC(=O)O)NC(=O)[C@H](CO)NC(=O)[C@@H](NC(=O)[C@H](Cc1ccccc1)NC(=O)[C@@H](NC(=O)CNC(=O)[C@H](CCC(=O)O)NC(=O)[C@H](C)NC(=O)[C@@H](N)Cc1cnc[nH]1)[C@@H](C)O)[C@@H](C)O)C(C)C)C(=O)N[C@@H](CCC(=O)O)C(=O)N[C@@H](Cc1ccccc1)C(=O)N[C@H](C(=O)N[C@@H](C)C(=O)N[C@@H](Cc1c[nH]c2ccccc12)C(=O)N[C@@H](CC(C)C)C(=O)N[C@H](C(=O)N[C@@H](CCCNC(=N)N)C(=O)NCC(=O)N[C@@H](CCCNC(=N)N)C(=O)NCC(=O)O)C(C)C)[C@@H](C)CC)C(=O)O` [liraglutide], the side effects (obese person) is given as “nausea, vomiting, diarrhea, and constipation”.

In the case of “YCDEHFAY (Fas binding peptide-A (FBP-A))”, the “binding to Jurkat cells (Alexa647 signal)” value (Fas) is reported as “bound to Jurkat cells at similar levels”.

In the case of “YCNSTVCY (control peptide) [CtrFBP, control peptide used as negative control, reference compound]”, the “binding to Jurkat cells (Alexa647 signal)” value (Fas) is reported as “hardly bound to Jurkat cells”, the apoptosis level (3T3L1 cell line) is reported as 23±5.12% and the “proportion of dead cells in liver tissue (TUNEL)” value (obesity model mice) is reported as 17+7.98%. For the same molecule, the “proportion of dead cells in white adipose tissue (TUNEL)” value (obesity model mice) was 51±2.98%.

B1: Fas Blocking Peptide (FBP or FBP-8) (peptide)
peptide: YCDEHFCY
modifications: cysteine pairing not given here; also: Alexa647 or Alexa 488 label, attachment site not given here
In the case of B1, the “apoptosis level of Jurkat cells treated with Fas ligand (FasL) and peptide” value (“apoptosis level of Jurkat cells treated” below) [2] is reported as 17%.

In the case of YCDEHFAY (also: Alexa647 label, attachment site not given here) [Fas Blocking Peptide A (FBPA)], the “apoptosis level of Jurkat cells treated” value [2] is reported as 15%.

B2: Control Peptide (CTRP) (peptide)
peptide: YCNSTVCY
modifications: cysteine pairing not given here; also: Alexa647 label, attachment site not given here
With B2 the “apoptosis level of Jurkat cells treated” value [2] was 31%.

For YCDEHFY (also: Alexa647 label, attachment site not given here) [Fas Blocking Peptide 7 (FBP7)], the “apoptosis level of Jurkat cells treated” value [2] was 14%.
